The values that follow come from IntAct's records for PubMed 38141762.

First the molecules themselves.
B1: Mitochondrial association factor 1 form b1 (Toxoplasma gondii), A0A140H546 (parent)
chain: MWRIWRCRLSFLFATGCLLGALTAGLGSQMSDSVGRNVQAPAGVADASQEAGDVVEERTERTEEQAFALGPPRRHSSESLFPRNASVTARRRRNRRIALIATAVGVAVILAAVYVLRRRRAQRPQDPEPPAPRSVEDPEVLPEEDEASSSLPPPPPPSPPPPPPVEDPLSPESQTVDLSCLSGTTVRFFGPSHHFGGFTPLYDPAPDKRVATVDAGANALFIGGGGLNGQFAKTLLEEAEKHGIRLTPEELSQHSQRIQQSLLRRAVKSPGKLVELDTGVASPVFARSFGFVPVVPGLMWEESEVGPNVGVTFVHILKPEVTPYGNLNNNVMMYTVAPSGAAPDKTYSLAYKTTIAGVIGAAAAYNDTPAGQQYPVQGLRLPLLGGGIFRRNRSLESIGRANAEGTSLAITRYGPNFELQYMYDPSNAALHGLQEAESTYLASMLD

The variants in the first assay derive from B1. The following applies: with RALGAPA1, Q6GYQ0-1.
Chain of RALGAPA1, Q6GYQ0-1 (Q6GYQ0 whole entry): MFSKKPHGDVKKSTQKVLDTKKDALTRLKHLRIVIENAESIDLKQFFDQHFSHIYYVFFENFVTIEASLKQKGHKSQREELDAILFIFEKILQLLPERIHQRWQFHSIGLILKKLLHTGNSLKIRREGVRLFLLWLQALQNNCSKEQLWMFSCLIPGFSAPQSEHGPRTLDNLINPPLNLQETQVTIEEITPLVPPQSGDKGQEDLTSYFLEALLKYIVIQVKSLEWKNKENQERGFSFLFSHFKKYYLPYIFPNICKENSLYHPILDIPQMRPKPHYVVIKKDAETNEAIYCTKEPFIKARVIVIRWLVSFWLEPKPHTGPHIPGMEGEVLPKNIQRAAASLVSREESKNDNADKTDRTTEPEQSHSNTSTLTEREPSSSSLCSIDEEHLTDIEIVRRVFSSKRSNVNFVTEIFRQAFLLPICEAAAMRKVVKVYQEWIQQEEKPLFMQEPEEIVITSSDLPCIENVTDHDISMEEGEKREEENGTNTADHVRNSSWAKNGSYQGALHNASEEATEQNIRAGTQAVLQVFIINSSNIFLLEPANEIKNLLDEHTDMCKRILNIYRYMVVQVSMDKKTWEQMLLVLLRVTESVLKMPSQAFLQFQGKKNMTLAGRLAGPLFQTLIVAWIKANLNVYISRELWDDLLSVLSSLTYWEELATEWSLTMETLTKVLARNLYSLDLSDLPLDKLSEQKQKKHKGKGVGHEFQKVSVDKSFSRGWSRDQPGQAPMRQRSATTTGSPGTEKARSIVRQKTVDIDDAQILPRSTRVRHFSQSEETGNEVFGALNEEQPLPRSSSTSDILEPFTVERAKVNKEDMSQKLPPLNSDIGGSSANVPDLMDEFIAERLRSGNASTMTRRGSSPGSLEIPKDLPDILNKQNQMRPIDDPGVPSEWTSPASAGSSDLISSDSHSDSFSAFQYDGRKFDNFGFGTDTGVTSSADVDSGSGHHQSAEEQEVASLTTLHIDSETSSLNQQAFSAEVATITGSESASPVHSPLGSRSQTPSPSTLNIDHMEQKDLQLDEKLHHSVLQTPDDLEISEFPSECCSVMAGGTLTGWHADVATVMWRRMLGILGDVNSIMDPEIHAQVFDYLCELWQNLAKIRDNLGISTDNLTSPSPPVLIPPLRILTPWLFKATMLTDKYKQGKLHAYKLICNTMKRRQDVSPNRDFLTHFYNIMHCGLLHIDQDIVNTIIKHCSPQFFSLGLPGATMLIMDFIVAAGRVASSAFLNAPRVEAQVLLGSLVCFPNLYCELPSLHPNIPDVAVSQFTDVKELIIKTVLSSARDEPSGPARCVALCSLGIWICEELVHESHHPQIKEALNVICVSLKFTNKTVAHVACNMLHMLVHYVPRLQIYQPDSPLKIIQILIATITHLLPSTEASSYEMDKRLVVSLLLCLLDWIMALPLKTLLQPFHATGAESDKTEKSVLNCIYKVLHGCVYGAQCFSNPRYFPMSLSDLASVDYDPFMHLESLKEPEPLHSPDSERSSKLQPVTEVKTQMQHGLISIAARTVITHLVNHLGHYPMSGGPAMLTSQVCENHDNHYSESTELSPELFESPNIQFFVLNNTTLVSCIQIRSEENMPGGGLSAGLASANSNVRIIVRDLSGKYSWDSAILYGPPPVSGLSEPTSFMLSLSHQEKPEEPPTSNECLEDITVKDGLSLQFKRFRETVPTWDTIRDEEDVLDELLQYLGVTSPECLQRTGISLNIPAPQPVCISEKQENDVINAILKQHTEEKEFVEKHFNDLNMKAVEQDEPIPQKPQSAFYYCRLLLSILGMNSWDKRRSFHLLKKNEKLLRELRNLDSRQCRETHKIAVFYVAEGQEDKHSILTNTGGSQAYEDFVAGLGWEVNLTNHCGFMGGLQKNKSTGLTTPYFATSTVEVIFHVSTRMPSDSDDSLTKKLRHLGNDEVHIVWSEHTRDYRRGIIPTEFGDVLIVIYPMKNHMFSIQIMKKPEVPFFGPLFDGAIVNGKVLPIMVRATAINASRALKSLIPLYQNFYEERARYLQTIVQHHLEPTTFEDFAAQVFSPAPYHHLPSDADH
On to S438R;L441K, for which the “effect of a mutation on the interaction” value is “decreasing interaction strength”.

Take S438R;T439K;L441K: the “effect of a mutation on the interaction” value is recorded as “decreasing interaction strength”.

The next assay covers variants of B1. The following applies: with RALGAPA1, Q6GYQ0-1. The source holds these as a separate data set.
Take S438R;L441K: the “effect of a mutation on the interaction” value is “with no effect”.

For P283R, the “effect of a mutation on the interaction” value is reported as “disrupting interaction strength”.

Turning to S438R;T439K;L441K, the “effect of a mutation on the interaction” value is recorded as “with no effect”.

A281F: the “effect of a mutation on the interaction” value was “disrupting interaction strength”.

For the variant V280R, the “effect of a mutation on the interaction” value is “disrupting interaction strength”.
